The source of these data is the supplement of paper PMC10126150.

± gives the standard deviation of the averaged measurements.
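Note: ATP exposure 15 min at 22 °C before imaging.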

For the data set, the system named is ATP. In words: switch fluorescence ratio, 500 uM ATP over buffer (Cy3 cluster intensity, sum of 5 cycles each) (fold (ratio)); higher = stronger signal-on switching upon ATP binding; sequences stand for … in TCGTCGGCAGCGTCAGATGTGTATAAGAGACAGTTTTTTTTTTTTTTTTTTTTTTTTT…TC. The conditions noted are these: aptamer strand: ATP DNA aptamer (quencher-CACCTGGGGGAGTATTGCGGAGGAAGG + anchor), 100 nM annealed; ATP concentration: 500 uM. An outline of the steps: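 Values give the fluorescence ratio for each switch-domain sequence, averaged from per-cluster ratios of summed target-cycle to summed buffer-cycle Cy3 intensity. The Cy3-labelled switching-strand clusters sat on a modified Illumina MiSeq flow-cell, were annealed to 100 nM quencher-labelled ATP aptamer, and were imaged in selection buffer, then after 15 min with 500 uM ATP at 22 °C. Five cycles ran with NaOH stripping and re-annealing between them, and clusters outside 100-1000 RFU were excluded.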
On to AAATTGATGG, for which the switch fluorescence ratio amounted to 1 ± 0.084.
With TATTAATTC, the switch fluorescence ratio was determined as 0.972 ± 0.056.
For AGGTTTGTGT, the switch fluorescence ratio worked out at 1.01 ± 0.024.
In the case of GAAATTCTAT it was 0.985 ± 0.033; in that of GCTGCTGTTT, 1.01 ± 0.0037; in that of TTGGAATTTA, 1 ± 0.016.
Consider ACGTGTCTTG, for which the switch fluorescence ratio came out at 1.01 ± 0.013.
As for GAGAAATTGG, the switch fluorescence ratio turned out to be 1 ± 0.022.
The same measure for CGGGCCTTGA: 0.981 ± 0.016; for TATAATAAGG: 0.9996 ± 0.0098; for GGGTAGGAAA: 1.011 ± 0.007.
The same measure for GAGCTTACGG: 1.064 ± 0.01; for TTCACAAGG: 1.0218 ± 0.00034.
In the case of TTCTATTTGA it was 1.0138 ± 0.00028; in that of TATGGCCCGG, 1.02 ± 0.0014.
Turning to TTTTTCCTCT, the switch fluorescence ratio was found to be 1.036 ± 0.0026.
In the case of AAAATGATTT it was 1.02 ± 0.043; in that of CGGGATGGAG, 0.9879 ± 0.0062.
The same measure for GCCAGGGGGT: 1.08 ± 0.12; for GGGTTCCGGC: 1.03 ± 0.098; for TTCGGTTAGA: 1.02 ± 0.015.
The same measure for GCGAGGGAGG: 1.02 ± 0.052.
GCAACCGAGG: the switch fluorescence ratio is 1.04 ± 0.064.
The same measure for ACATTGGGAT: 0.998 ± 0.022; for AAGTGGGGCT: 1.005 ± 0.0094; for ATTCGTTGG: 1 ± 0.038.
The same measure for TCTTTCTGGG: 1.03 ± 0.021; for AAGGGAAAAA: 1.03 ± 0.092; for GAGGGCCTGA: 1.01 ± 0.012.
In the case of AATTCAGGGG it was 1.07 ± 0.069; in that of AAGATAGGGA, 0.9792 ± 0.0035; in that of TTTTGGAGTT, 0.998 ± 0.035.
As for CAAACTAGC, the switch fluorescence ratio came out at 0.99 ± 0.003.
The same measure for CCCGGCCCAG: 1.05 ± 0.064; for TTATTGGCGG: 1.015 ± 0.0097.
In the case of ATATGGGAAA it was 0.978 ± 0.025; in that of GCGCTGGGCA, 1.01 ± 0.035.
Take CGTGCTATTC: the switch fluorescence ratio was 1.235 ± 0.012.
In the case of GGATTTTATA it was 1.01 ± 0.024.
For the sequence CATTGGGGGA, the switch fluorescence ratio was found to be 0.983 ± 0.014.
In the case of AGGTAATGAA it was 0.967 ± 0.023; in that of CGGGTTGCCT, 0.999 ± 0.028; in that of CGGTTTTTTC, 1.03 ± 0.027.
In the case of GGGGGTTGGT it was 0.996 ± 0.026; in that of TTGAATCCAT, 1.01 ± 0.019.
The same measure for CTGGGCAGGG: 1.02 ± 0.055; for ACTGAGTTGT: 1.04 ± 0.038.
GAGGGGGCAA: the switch fluorescence ratio is 1.01 ± 0.016.
The same measure for CTTAGCTAGT: 1.09 ± 0.13.
Regarding GTTGCATATT, the switch fluorescence ratio came out at 0.978 ± 0.023.
Turning to AAAAGCGGTA, the switch fluorescence ratio is 1 ± 0.054.
The same measure for GGGTGCAATT: 1.05 ± 0.028.
In the case of TAGGGGGGAT it was 0.992 ± 0.035; in that of TGGGGCTCTT, 1 ± 0.013.
Consider TTTACCATTT, for which the switch fluorescence ratio stood at 1.024 ± 0.0018.
Regarding TAAAGTGCGA, the switch fluorescence ratio turned out to be 0.993 ± 0.035.
Take ATATATAAAT: the switch fluorescence ratio was determined as 0.978 ± 0.033.
The same measure for GGGTTGGGAT: 0.995 ± 0.021; for GTTGTTGCTC: 0.987 ± 0.04; for CATAGTTGTT: 1.025 ± 0.0018.
In the case of TTTGTAGGGT it was 0.971 ± 0.011; in that of TGGTTAGTGT, 1.01 ± 0.057; in that of AAGCAGCCCT, 1.02 ± 0.015.
On to GCGGGATATG, for which the switch fluorescence ratio stood at 0.994 ± 0.019.
In the case of CTGGTCATCT it was 0.991 ± 0.011.
The same measure for CATAGGGCAG: 1.03 ± 0.012; for CAGACCGTTT: 1.01 ± 0.018.
